# Test results published in US20050164345A1, “Synthesis of human procollagens and collagens in recombinant DNA systems” (priority 1992, published 2005).
# B1: Proα1 (III) chains: Triton X-100 extract of insect cells expressing only proα1 chains of human type III procollagen (protein, UniProt P02461 24-1466, looked up)
# pro-form: QQEAVEGGCSHLGQSYADRDVWKPEPCQICVCDSGSVLCDDIICDDQELDCPNPEIPFGECCAVCPQPPTAPTRPPNGQGPQGPKGDPGPPGIPGRNGDPGIPGQPGSPGSPGPPGICESCPTGPQNYSPQYDSYDVKSGVAVGGLAGYPGPAGPPGPPGPPGTSGHPGSPGSPGYQGPPGEPGQAGPSGPPGPPGAIGPSGPAGKDGESGRPGRPGERGLPGPPGIKGPAGIPGFPGMKGHRGFDGRNGEKGETGAPGLKGENGLPGENGAPGPMGPRGAPGERGRPGLPGAAGARGNDGARGSDGQPGPPGPPGTAGFPGSPGAKGEVGPAGSPGSNGAPGQRGEPGPQGHAGAQGPPGPPGINGSPGGKGEMGPAGIPGAPGLMGARGPPGPAGANGAPGLRGGAGEPGKNGAKGEPGPRGERGEAGIPGVPGAKGEDGKDGSPGEPGANGLPGAAGERGAPGFRGPAGPNGIPGEKGPAGERGAPGPAGPRGAAGEPGRDGVPGGPGMRGMPGSPGGPGSDGKPGPPGSQGESGRPGPPGPSGPRGQPGVMGFPGPKGNDGAPGKNGERGGPGGPGPQGPPGKNGETGPQGPPGPTGPGGDKGDTGPPGPQGLQGLPGTGGPPGENGKPGEPGPKGDAGAPGAPGGKGDAGAPGERGPPGLAGAPGLRGGAGPPGPEGGKGAAGPPGPPGAAGTPGLQGMPGERGGLGSPGPKGDKGEPGGPGADGVPGKDGPRGPTGPIGPPGPAGQPGDKGEGGAPGLPGIAGPRGSPGERGETGPPGPAGFPGAPGQNGEPGGKGERGAPGEKGEGGPPGVAGPPGGSGPAGPPGPQGVKGERGSPGGPGAAGFPGARGLPGPPGSNGNPGPPGPSGSPGKDGPPGPAGNTGAPGSPGVSGPKGDAGQPGEKGSPGAQGPPGAPGPLGIAGITGARGLAGPPGMPGPRGSPGPQGVKGESGKPGANGLSGERGPPGPQGLPGLAGTAGEPGRDGNPGSDGLPGRDGSPGGKGDRGENGSPGAPGAPGHPGPPGPVGPAGKSGDRGESGPAGPAGAPGPAGSRGAPGPQGPRGDKGETGERGAAGIKGHRGFPGNPGAPGSPGPAGQQGAIGSPGPAGPRGPVGPSGPPGKDGTSGHPGPIGPPGPRGNRGERGSEGSPGHPGQPGPPGPPGAPGPCCGGVGAAAIAGIGGEKAGGFAPYYGDEPMDFKINTDEIMTSLKSVNGQIESLISPDGSRKNPARNCRDLKFCHPELKSGEYWVDPNQGCKLDAIKVFCNMETGETCISANPLNVPRKHWWTDSSAEKKHVWFGESMDGGFQFSYGNPELPEDVLDVHLAFLRLLSSRASQNITYHCKNSIAYMDQASGNVKKALKLMGSNEGEFKAEGNSKFTYTVLEDGCTKHTGEWSKTVFEYRTRKAVRLPIVDIAPYDIGGPDQEFGVDVGPVCFL
# modifications: pro-form
# notes: Triton X-100 extract of insect cells expressing only proα1 chains of human type III procollagen
# System: prolyl 4-hydroxylase
# Assay: prolyl 4-hydroxylase activity of Triton X-100 extracts from insect cells (hydroxylation-coupled decarboxylation of 2-oxo[1-14C]glutarate)
# Type: biochemical
# Details: Triton extract, 72 h after infection
# Experimental: The 0.2% Triton X-100 extracts of cell homogenates were analyzed for prolyl 4-hydroxylase activity with an assay based on the hydroxylation-coupled decarboxylation of 2-oxo [1-^14C] glutarate (Kivirikko et al., Methods EnzVmol. 82: 245-304 (1982)). As reported previously (Veijola et al., J. Biol. Chem. 269: 26746-26753 (1994)), a significant level of prolyl 4-hydroxylase activity was found in both Sf9 and High Five cells, the activity in High Five cells being distinctly higher than that in Sf9 cells (Table I). […]
# Insect cells (Sf9 or High Five, Invitrogen) were cultured in TNM-FH medium (Sigma) supplemented with 10% fetal bovine serum (BioClear) or in a serum-free HyQ CCM3 medium (HyClone) either as monolayers or in suspension in shaker flasks at 27° C. […] The remaining cell pellet that was insoluble in the homogenization buffer was further solubilized in 1% SDS and analyzed by SDS-PAGE^1. […] Aliquots of the supernatants of the cell homogenates and the concentrated cell culture medium were analyzed by denaturing SDS-PAGE, followed by staining with Coomassie Brilliant Blue or Western blotting with an antibody to the N-propeptide of human type III procollagen.
molecule,measurement,setting,value
B1,Prolyl 4-hydroxylase activity,"High Five cells, mean of duplicates in three experiments",500 dpm/10 μl
same,Prolyl 4-hydroxylase activity,"Sf9 cells, mean of duplicates in one experiment",60 dpm/10 μl
